Neutralization of surface bound thrombin (chromogenic substrate hydrolysis) and increase in fluorescence data for 1 substance are collected here from patent US20170058319A1, “NANOSENSOR FOR ASSESSING THROMBIN INHIBITORS” (VIRGINIA COMMONWEALTH UNIVERSITY, priority 2014, published 2017).

The target of experiment [1] is Au-TH nanoprobe (gold nanoparticles covalently linked to bovine α-thrombin) (bovine) (UniProt P00735). The experiment in a line: cell-based or functional assay.
For experiment [2] the target is unchanged. The experiment in a line: displacement of HirP from the Au-TH nanoprobe by AT at 1 µM, 1 h incubation.
The target is the same in experiment [3]. The experiment in a line: displacement of HirP from the Au-TH nanoprobe by AT at 10 µM, 1 h incubation.
Experiment [4] has the same target. In words: displacement of HirP from the Au-TH nanoprobe by AT at 100 µM, 1 h incubation.

Chain of Antithrombin (AT) (P01008 33-464): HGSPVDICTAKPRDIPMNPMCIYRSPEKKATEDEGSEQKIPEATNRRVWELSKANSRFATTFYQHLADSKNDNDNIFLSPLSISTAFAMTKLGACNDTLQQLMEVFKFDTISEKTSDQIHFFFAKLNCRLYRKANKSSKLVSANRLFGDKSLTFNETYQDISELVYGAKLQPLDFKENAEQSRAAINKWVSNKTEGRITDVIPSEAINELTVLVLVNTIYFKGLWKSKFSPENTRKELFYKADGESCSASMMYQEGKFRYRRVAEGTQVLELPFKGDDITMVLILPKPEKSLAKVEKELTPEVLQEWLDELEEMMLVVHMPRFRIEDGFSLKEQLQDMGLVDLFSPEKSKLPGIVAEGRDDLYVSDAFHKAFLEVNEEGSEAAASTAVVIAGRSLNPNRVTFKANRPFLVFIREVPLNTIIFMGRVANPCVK

For the substance Antithrombin (AT), in experiment [1], the neutralization of surface bound thrombin (chromogenic substrate hydrolysis) was < 60%. In addition, the increase in fluorescence at 525 nm worked out at 40% in experiment [2], 25% in experiment [3] and 20% in experiment [4].
